From patent US20240400690A1 (BIO THERA SOLUTIONS, published 2024)

Experiments:
[1] = target: T1, mouse B7-H3 (SinoBiological, 50973-M08H) (mouse, UniProt Q8VE98 29-244); assay: ELISA, antigen coated at 2 µg/mL; Table 13 prints EC50 as NA
T1 construct: Bought reagent
T1 sequence (looked up): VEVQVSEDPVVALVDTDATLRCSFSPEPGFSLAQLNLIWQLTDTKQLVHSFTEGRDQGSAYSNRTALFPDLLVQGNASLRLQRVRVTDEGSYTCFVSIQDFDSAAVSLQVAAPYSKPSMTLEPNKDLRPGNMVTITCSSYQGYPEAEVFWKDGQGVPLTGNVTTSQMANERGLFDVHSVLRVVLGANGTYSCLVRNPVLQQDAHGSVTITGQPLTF
Method: The day before the experiment, the target antigens cynomolgus monkey B7-H3 (novoprotein CA61), mouse B7-H3 (SinoBiological, 50973-M08H) and hB7-H3-his were each diluted to 2 μg/mL with 1×PBS and added to a ELISA plate (96-well plate) at 100 μL/well (two rows for each antigen), and the wells were coated overnight at 4° C.

[2] = target: T2, B7-H3 on tumour cells (MDA-MB-468 cells, N87 cells) (UniProt Q5ZPR3 29-534, limits assumed); assay: flow cytometry on MDA-MB-468 cells, PE goat anti-human IgG Fc secondary; blank 0.9% in the positive gate
T2 construct: whole, on cells
T2 sequence (looked up): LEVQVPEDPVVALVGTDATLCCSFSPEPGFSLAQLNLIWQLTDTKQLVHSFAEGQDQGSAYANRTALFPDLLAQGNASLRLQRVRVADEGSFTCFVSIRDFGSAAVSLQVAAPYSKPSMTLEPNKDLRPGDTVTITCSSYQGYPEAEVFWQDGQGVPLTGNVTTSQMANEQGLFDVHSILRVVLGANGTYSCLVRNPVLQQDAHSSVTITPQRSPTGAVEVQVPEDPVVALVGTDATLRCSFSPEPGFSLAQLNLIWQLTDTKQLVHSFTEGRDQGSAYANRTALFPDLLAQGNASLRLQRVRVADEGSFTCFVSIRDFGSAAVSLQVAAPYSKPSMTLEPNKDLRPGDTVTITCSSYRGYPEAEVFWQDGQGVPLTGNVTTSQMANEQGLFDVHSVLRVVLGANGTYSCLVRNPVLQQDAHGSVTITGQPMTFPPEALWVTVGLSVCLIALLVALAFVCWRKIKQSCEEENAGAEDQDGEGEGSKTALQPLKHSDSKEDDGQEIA
Method: MDA-MB-468 cells in logarithmic phase were collected and centrifuged at 1500 rpm for 5 min, and the supernatant was removed. The cells were resuspended in 1×PBS and centrifuged at 1500 rpm for 5 min, and the supernatant was removed, and then the procedure was repeated once. MDA-MB-468 cells were added to a V-bottom 96-well plate at 50 μL/well (200,000 cells) and centrifuged at 1500 rpm for 5 min, and PBS was discarded; the humanized antibody diluted in gradient (initial concentration of 100 nM, 3-fold gradient dilution, 1×PBS as the vehicle) was added at 100 μL/well; the cells were resuspended, and incubated on ice for 1 h; after the incubation was completed, the cells were centrifuged at 2000 rpm for 5 min, and the supernatant was removed; the cells were resuspended in 1×PBS added at 200 µL/well and centrifuged again and the supernatant was removed, and the procedure was repeated twice; a PE-labeled goat anti-human IgG Fc secondary antibody (Invitrogen, cat #12-4998-82, diluted with 1×PBS at 1:500) was added at 100 μL/well; the cells were resuspended, and incubated for 30 min on ice in the absence of light; after the incubation was completed, the cells were centrifuged at 2000 rpm for 5 min, and the supernatant was removed; the cells were resuspended in 1×PBS added at 200 μL/well and centrifuged again and the supernatant was removed, and the procedure was repeated twice; 1×PBS was then added at 200 μL/well to resuspend the cells; the detection was performed with a cytoflex flow cytometer (Beckman).

B1: antibody V3 (antibody, human IgG1, kappa, V domains shown)
VH: EVQLVQSGAEVKKSGESLKISCKASGYTFTDYDINWVRQMPGKGLEWIGWIFPGDDTTKYNEKFKGQVTLSADKSTNTAYMQWSSLKASDTAMYYCARSPSFDYWGQGTLVTVSS
VL: QIVLTQSPGTLSLSPGERATLSCSASSTIGFMYWYQQKPGQAPRRWIYDTSKLASGVPDRFSGSGSGTDYTLTISRLEPEDFAVYYCHQRSSYPTFGQGTKVEIKR
notes: Humanized from chimeric antibody M1; expressed in HEK293F cells; also called humanized antibody V3
B1 was tested, and the binding result [1] was “no binding”, the “% of cells in positive gate V1-R at 0.411 nM” value [2] was 36.8% and the “% of cells in positive gate V1-R at 1.23 nM” value [2] was 86.4%. The “% of cells in positive gate V1-R at 3.7 nM” value [2] was 94%, the “% of cells in positive gate V1-R at 11.11 nM” value [2] was 97.2% and the “% of cells in positive gate V1-R at 33.33 nM” value [2] was 98.9%. For the same binder, the “% of cells in positive gate V1-R at 100 nM” value [2] was 99.6%.
